# Reference: article PMC9288967
# Biological target: SARS-CoV-2 spike RBD (wild type) (SARS-CoV-2) (UniProt P0DTC2)
# Assay: BLI
substance,measurement,value
mNb6(108FFY) (VHH),Kd,0.91 nM
